Data from US20240358805A1 (BRIGHAM AND WOMEN S HOSPITAL, published 2024).
Residue numbers refer to the chain shown, from its start.

T1: peptide mimetic 13
T1 construct: As for peptide mimetic 1; also called peptide 13
T1 peptide: QVYEVHHRGYTD

T2: peptide mimetic 11
T2 construct: As for peptide mimetic 1; also called peptide 11
T2 peptide: NMYEWNHKDPNM

T3: peptide mimetic 8
T3 construct: As for peptide mimetic 1; also called peptide 8
T3 peptide: SYELHHKPLHAQ

T4: NETL-1 cyclized synthetic peptide immunogen (cyclized on resin through the cysteines C4 and C27; N-terminal cysteine used for conjugation to maleimide-activated plates)
T4 construct: Aβ residues 9-18, then Pro-Asn, then the same ten residues backwards; also called cyclized peptide; the immunogen
T4 peptide: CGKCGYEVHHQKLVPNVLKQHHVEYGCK

T5: peptide mimetic 4
T5 construct: As for peptide mimetic 1; also called peptide 4
T5 peptide: YQIHHNTQKRGG

T6: peptide mimetic 5
T6 construct: As for peptide mimetic 1; also called peptide 5
T6 peptide: DSVVPSYEVHHK

T7: peptide mimetic 10
T7 construct: As for peptide mimetic 1; also called peptide 10
T7 peptide: EMAPVASANLPP

T8: peptide mimetic 2
T8 construct: As for peptide mimetic 1; also called peptide 2
T8 peptide: NLHQYPTAMQAR

T9: peptide mimetic 9
T9 construct: As for peptide mimetic 1; also called peptide 9
T9 peptide: GPHTYPPQIALT

T10: peptide mimetic 3
T10 construct: As for peptide mimetic 1; also called peptide 3
T10 peptide: SPPTYEIHHFSP

T11: peptide mimetic 7
T11 construct: As for peptide mimetic 1; also called peptide 7
T11 peptide: GWYEIHHPSQRA

T12: peptide mimetic 6
T12 construct: As for peptide mimetic 1; also called peptide 6
T12 peptide: TPNNTTSHRYPD

T13: peptide mimetic 1
T13 construct: also called peptide 1
T13 peptide: QIYEVHHRGYTD

T14: peptide mimetic 12
T14 construct: As for peptide mimetic 1; also called peptide 12
T14 peptide: SPSHMYPSSLIQ

B1: monoclonal antibody 71A1 (antibody, V domains shown)
VH: EVQLQESGAELVRPGVSVKLSCKTSDYTFTSYWLHWFKQRPEQGLERIGEIDPSNGDADYSEKFKSKATLTVDKSSTTAYMQLASLTSEDSAVYYCAREAYGHYFDYWGQGTTLTVSS
VL: DVVMTQTPLSLPVSLGDQASISCRSSQSLEHSNGNTYLHWYLQKPGQSPKLLIYKLSNRFSGVPDRFSGSGSGTDFTLKISRVEAEDLGVYFCSQSTHVPYTFGGGTKLEIK
notes: Biotinylated when used as capture on streptavidin beads, resin or plates; also called Mab 71A1; mab 71 A1
B2: monoclonal antibody 1G5 (antibody, V domains shown)
VH: B1 VH with E1Q, E6Q, S7P
VL: B1 VL
notes: Biotinylated when used as capture; also called Mab 1G5; isolate 1g

Experiments:
peptide mimetic 13 = biological target: T1, peptide mimetic 13; assay: indirect ELISA, peptide at 10 µg/mL on maleimide-activated plate, absorbance at 650 nm
Method: (§1) A standard, indirect enzyme linked immunosorbent assay (ELISA) with purified monoclonal antibody 71A1 was used to assay for binding to peptide mimetics 1-13 (sequences in FIG. 13) conjugated to maleimide-activated micro titer plates at 10 μg/mL in 0.1M Sodium bicarbonate buffer pH10 and blocked with PBS and 2% BSA. After one hour incubation, the wells were washed and then 100 ul of a secondary, Horseradish peroxidase (HRPO)-conjugated goat anti-mouse antibody was added and the plates, incubated for an additional hour before addition of TMB (3,3′,5,5′-Tetramethylbenzidine) substrate. Absorbance was measured in a spectrophotometer at 650 nm.

peptide mimetic 11 = biological target: T2, peptide mimetic 11; assay: as above
Method: as §1

peptide mimetic 8 = biological target: T3, peptide mimetic 8; assay: as above
Method: as §1

[1] = biological target: T4, NETL-1 cyclized synthetic peptide …; assay: indirect ELISA, peptide on maleimide-activated plate
Description: (§2) The rationale behind the NETL-1 immunogen was that a more focused epitope formed by a cyclized peptide may restrict the response to a dimer structure derived from the chosen 10aa sequence with minimal or no induction of responses to the monomer 10aa peptide sequence found within full length Aβ40. Both responses were observed. We can account for this, in part, by the fact that there may always be a minimal epitope available for recognition that is cross-reactive with the monomer sequence no matter how small the peptide structure. Several monoclonal antibodies specific for both NETL-1 and NETL-2 were isolated. Two isolates, 7a and 1g stood out that bound to NETL-1 but not to NETL-2 or Aβ40. These isolates were sub-cloned for further characterization. Two isolated subclones, Mab 71A1 and 1G5 were chosen, grown in tissue culture and purified for confirmation of specificity and for future studies. Both 71A1 and 1G5 monoclonal antibodies bound to the cyclized peptide, NETL-1 and not to control wells, Aβ40 monomer peptide or control peptide NETL-2 (FIG. 2). FIG. 2 is a standard, indirect enzyme linked immunosorbent assay (ELISA) with the purified monoclonal antibodies assayed for binding to Aβ40, NETL 1 or NETL 2 peptides conjugated to malemide-activated (SH-reactive) micro titer plates. After one hour incubation, the wells were washed and then 100 ul of a secondary, Horseradish peroxidase (HRPO)-conjugated goat anti-mouse antibody was added and the plates, incubated for an additional hour before addition of TMB (3,3′,5,5′-Tetramethylbenzidine) substrate. Absorbance was measured in a spectrophotometer at 650 nm.

[2] = biological target: T15, full length Aβ40 with a C-terminal cysteine (conjugated to maleimide-activated plate through the added cysteine); assay: as above
T15 construct: also called Aβ40 monomer peptide
Description: as §2

peptide mimetic 4 = biological target: T5, peptide mimetic 4; assay: phage display panning (Ph.D.-12 library) on immobilized 71A1
Description: (§3) A New England Biolabs (NEB) Ph.D.-12™ Phage Display Peptide Library Kit (instructions attached) was used to isolate amino acid residue peptide ligands (referred to herein as peptide mimetics) that bound to immobilized Mab 71A1. The New England Biolabs Ph.D.-12™ Phage Display Peptide Library Kit is a combinatorial library of random, 12 amino acid peptides (12-mers) fused to a minor coat protein (pIII) of the M13 bacteriophage. The peptide was expressed as a fusion with a coat protein that produces a display of the fused protein on the surface of the bacteriophage. The library consists of 2.7×109 electroporated sequences, amplified once to yield approximately 55 copies of each sequence in 10 μl of the supplied phage.
(§4) Immobilized 71A1 antibody was used to isolate the 12 amino acid peptides, shown in FIG. 13, that bound to the variable region. Thermo Scientific™ AminoLink Plus Coupling Resin was used to immobilize Mab 71A1. Negative control particles were made using monoclonal antibody 3C7 with specificity for an irrelevant peptide sequence. The Thermo Scientific™ AminoLink Plus Coupling Resin Protocol is provided that was used to produce the 71A1 particles panned with the NEB library. Briefly, 2 mL aminolink particle slurry was washed twice with 10 mL, 0.1 M sodium bicarbonate buffer pH 10 in a 15 mL conical tube by centrifugation for 10 minutes at 2000×g. 10 mgs of 71A1 antibody in this binding buffer was then added to the particles transferred to a 2 mL eppendorph tube and rotated at room temperature for 2 hours. The slurry was then added to a Millipore, Ultrafree-MC centrifugal filter unit and the resin washed 3× in 2 mL, 0.1M sodium phosphate, 0.15M NaCl, pH 7.2 binding buffer. Spun particles were then mixed with 2 mL pH 7.2 buffer and 40 μl of 50 mM Sodium Cyanoborohydride Solution and rotated for 4 hours. The aminoLink gel contains aldehyde functional groups that spontaneously react with primary amines on the antibody. The Schiff base bonds that form are then reduced to stable secondary amine bonds in the presence of the mild reducing agent, sodium cyanoborohydride. Particles were then washed twice with 2 mL 1M Tris HCL, pH 7.4, resuspended in 2 mL of this same buffer and 40 μl Sodium cyanoborohydride to block unbound sites on the particles, and rotated for 30 minutes. Particles washed 5 times with 1M sodium chloride were suspended in 1 mL PBS.

peptide mimetic 5 = biological target: T6, peptide mimetic 5; assay: as above
Description: as §3, §4

peptide mimetic 10 = biological target: T7, peptide mimetic 10; assay: as above
Description: as §3, §4

peptide mimetic 2 = biological target: T8, peptide mimetic 2; assay: as above
Description: as §3, §4

peptide mimetic 9 = biological target: T9, peptide mimetic 9; assay: as above
Description: as §3, §4

peptide mimetic 3 = biological target: T10, peptide mimetic 3; assay: as above
Description: as §3, §4

peptide mimetic 7 = biological target: T11, peptide mimetic 7; assay: as above
Description: as §3, §4

peptide mimetic 6 = biological target: T12, peptide mimetic 6; assay: as above
Description: as §3, §4

peptide mimetic 1 = biological target: T13, peptide mimetic 1; assay: as above
Description: as §3, §4

peptide mimetic 12 = biological target: T14, peptide mimetic 12; assay: as above
Description: as §3, §4

[3] = biological target: T16, Aβ / Aβ oligomers in human CSF (human, UniProt P05067 672-713); assay: 71A1 capture / 3D6 detector sandwich immunoassay, sample with or without 8M GnCl
T16 construct: Natural mixture; also called CSF Aβ; CSF Aβ oligomers

[4] = biological target: T17, Aβ oligomers (oAβ) in human plasma (human, UniProt P05067 672-713); assay: as above
T17 construct: Natural mixture; also called plasma oAβ; 71A1-positive oligomers in plasma

[5] = biological target: T18, soluble Aβ / Aβ oligomers (oAβ) of human AD brain extracts (human, UniProt P05067 672-713); assay: as above
T18 construct: Natural mixture; also called Aβ from human brain soaking extract; AD brain soaking extract oAβ

[6] = biological target: T19, S26C Aβ40 reduced by DTT to its monomeric form; assay: 71A1 capture / 3D6 detector sandwich immunoassay, S26C Aβ40 dimer native or reduced by DTT
T19 construct: The dimer of m16 after reduction with DTT; also called reduced monomeric counterpart; monomeric Aβ

T17 sequence (P05067 672-713): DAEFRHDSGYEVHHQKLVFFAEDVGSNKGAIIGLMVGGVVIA
T18 sequence (P05067 672-713): as above
T16 sequence (P05067 672-713): as above

| Binder | binding result (peptide mimetic 13) | binding result (peptide mimetic 11) | binding result (peptide mimetic 8) | binding result [1] | binding result [2] | binding result (peptide mimetic 4) | binding result (peptide mimetic 5) | binding result (peptide mimetic 10) | binding result (peptide mimetic 2) | binding result (peptide mimetic 9) | binding result (peptide mimetic 3) | binding result (peptide mimetic 7) | binding result (peptide mimetic 6) | binding result (peptide mimetic 1) | binding result (peptide mimetic 12) | decrease of 71A1/3D6 signal after 8M GnCl denaturation [3] [%] | decrease of 71A1/3D6 signal after 8M GnCl denaturation [4] [%] | decrease of 71A1/3D6 signal after 8M GnCl denaturation [5] [%] | fold less binding than to higher order Aβ (non-reduced S26C dimer) [6] [fold] |
| --- | --- | --- | --- | --- | --- | --- | --- | --- | --- | --- | --- | --- | --- | --- | --- | --- | --- | --- | --- |
| B1 | binds | binds | binds | binds | no binding | binds | binds | binds | binds | binds | binds | binds | binds | binds | binds | > 99 | > 84 | > 70 | > 100 |
| B2 | – | – | – | binds | no binding | – | – | – | – | – | – | – | – | – | – | – | – | – | – |
